From US20210284747A1 (CAPELLA BIOSCIENCE, published 2021)
Positions count from the first letter of the chain named. Each block holds one binder with its values, some of them ahead of it.

What was measured:
[1] = biological target: LIGHT without residues 81-84, stably expressed on EL4 cells (EL4-NC-LIGHT); assay: cell-based or functional assay
[2] = biological target: T1, Human LIGHT stably expressed on EL4 cells (EL4-LIGHT) (human, UniProt O43557 1-240); assay: flow cytometry, EL4-LIGHT cells, against F19 and F23
T1 construct: whole, on cells; also called membrane LIGHT
T1 sequence (O43557 whole entry): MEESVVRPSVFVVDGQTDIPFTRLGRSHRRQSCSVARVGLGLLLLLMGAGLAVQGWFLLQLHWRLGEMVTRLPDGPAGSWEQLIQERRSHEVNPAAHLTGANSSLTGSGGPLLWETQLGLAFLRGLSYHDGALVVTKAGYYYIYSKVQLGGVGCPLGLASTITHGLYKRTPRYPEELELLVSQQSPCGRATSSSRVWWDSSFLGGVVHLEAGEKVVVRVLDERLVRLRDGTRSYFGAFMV

[3] = biological target: T1, Human LIGHT stably expressed on EL4 …; assay: flow cytometry, EL4-LIGHT cells
Experimental: The EC50 of the 7 mAbs were calculated from binding to EL4-LIGHT cells (FIG. 1). […] Non-linear regression analysis was performed to determine the functional binding affinity measurement or EC50 for each mAb. A range of functional affinities was observed.

[4] = biological target: T1, Human LIGHT stably expressed on EL4 …; assay: KD calculated from the EC50 on EL4-LIGHT cells (Table 7)
[5] = biological target: T1, Human LIGHT stably expressed on EL4 …; assay: flow cytometry competition on EL4-LIGHT cells, co-incubation 40 min 4 C; blocked ligand DcR3-Fc-AF647 0.8 ug/ml; displacement is partial
Experimental: EL4-LIGHT cells were co-incubated with Alexa Fluor 647 conjugated DcR3-Fc (DcR3-Fc-AF647; 0.8 μg/ml) and graded concentrations (31 μg/ml to 128 μg/ml) of anti-membrane LIGHT antibodies (3B04, 03D12 and 02B111) for 40 min at 4° C. A control, of a mAb that binds both soluble and membrane LIGHT was included (F19 from EP2292663). The samples were washed three times and flow cytometry analysis was performed. Specific mean fluorescence intensity (MFI) obtained from the binding of DcR3-Fc-AF647 to LIGHT on EL4 cells were used to determine the levels of competition binding.

[6] = biological target: Full length LIGHT V196A on HEK293FF cells (Homo sapiens (Human), UniProt O43557 1-240); assay: flow cytometry, HEK293FF, mAb at EC50
Experimental: (§1) The day of transfection the cells were seeded in a 24-well plate at 0.6×10⁶ cells/well. Lipofectamine 2000 (ThermoFisher scientific), 3 ul, was mixed with 50 μl OptiMEM medium (GIBCO) and then added to 50 μl Opti-MEM medium containing 3 ug plasmid DNA and incubated for 20 min at RT to form DNA-Lipofectamine 2000 complexes which were then added to the HEK293FF cells and incubated at 37° C., 5% CO₂ for 24 hours. For each construct, in duplicate, 0.60×10⁶ cells/well were used in a 96 well round bottom plate. Cells were centrifuged for 3 minutes at 300×g at 4° C., the supernatant discarded and the cells washed with 150 μl FACS buffer (0.5% FBS in phosphate buffered saline). This process was repeated 3 times. […] The wells were washed 3 times as above and 50 μl/well of goat anti-human IgG FITC (1:1500 dilution in FACS buffer, SIGMA F9512-2ML) or goat anti-mouse APC (1/500 dilution in FACS buffer, BDBioscience 550826), as appropriate, was added to the wells and incubated for 30 min at 4° C. protected from the light, with shaking. The cells were then washed as above, resuspended in 100 μl of FACS buffer and binding of the antibodies to the constructs was measured using flow cytometry and a total of 10,000 cells were acquired for each sample. Controls of buffer and secondary antibody only as well as HEK293FF non transfected cells were also used.

[7] = biological target: Full length LIGHT R189A on HEK293FF cells (Homo sapiens (Human), UniProt O43557 1-240); assay: flow cytometry, HEK293FF, mAb at EC50
Chain of Full length LIGHT R189A on HEK293FF cells (O43557 whole entry R189A): as the sequence (O43557 whole entry) above, with R189A counted along it
Experimental: as §1

[8] = biological target: Full length LIGHT S192A on HEK293FF cells (Homo sapiens (Human), UniProt O43557 1-240); assay: flow cytometry, HEK293FF, mAb at EC50
Chain of Full length LIGHT S192A on HEK293FF cells (O43557 whole entry S192A): as the sequence (O43557 whole entry) above, with S192A counted along it
Experimental: as §1

[9] = biological target: Full length LIGHT R195A on HEK293FF cells (Homo sapiens (Human), UniProt O43557 1-240); assay: flow cytometry, HEK293FF, mAb at EC50
Chain of Full length LIGHT R195A on HEK293FF cells (O43557 whole entry R195A): as the sequence (O43557 whole entry) above, with R195A counted along it
Experimental: as §1

[10] = biological target: Full length LIGHT S193A on HEK293FF cells (Homo sapiens (Human), UniProt O43557 1-240); assay: flow cytometry, HEK293FF, mAb at EC50
Experimental: as §1

[11] = biological target: Full length LIGHT G188A on HEK293FF cells (Homo sapiens (Human), UniProt O43557 1-240); assay: flow cytometry, HEK293FF, mAb at EC50
Chain of Full length LIGHT G188A on HEK293FF cells (O43557 whole entry G188A): as the sequence (O43557 whole entry) above, with G188A counted along it
Experimental: as §1

[12] = biological target: Full length LIGHT A190S on HEK293FF cells (Homo sapiens (Human), UniProt O43557 1-240); assay: flow cytometry, HEK293FF, mAb at EC50
Chain of Full length LIGHT A190S on HEK293FF cells (O43557 whole entry A190S): as the sequence (O43557 whole entry) above, with A190S counted along it
Experimental: as §1

[13] = biological target: Full length LIGHT S194A on HEK293FF cells (Homo sapiens (Human), UniProt O43557 1-240); assay: flow cytometry, HEK293FF, mAb at EC50
Chain of Full length LIGHT S194A on HEK293FF cells (O43557 whole entry S194A): as the sequence (O43557 whole entry) above, with S194A counted along it
Experimental: as §1

[14] = biological target: Full length LIGHT W198A on HEK293FF cells (Homo sapiens (Human), UniProt O43557 1-240); assay: flow cytometry, HEK293FF, mAb at EC50
Chain of Full length LIGHT W198A on HEK293FF cells (O43557 whole entry W198A): as the sequence (O43557 whole entry) above, with W198A counted along it
Experimental: as §1

[15] = biological target: Full length LIGHT W197A on HEK293FF cells (Homo sapiens (Human), UniProt O43557 1-240); assay: flow cytometry, HEK293FF, mAb at EC50
Chain of Full length LIGHT W197A on HEK293FF cells (O43557 whole entry W197A): as the sequence (O43557 whole entry) above, with W197A counted along it
Experimental: as §1

[16] = biological target: Full length LIGHT T191A on HEK293FF cells (Homo sapiens (Human), UniProt O43557 1-240); assay: flow cytometry, HEK293FF, mAb at EC50
Chain of Full length LIGHT T191A on HEK293FF cells (O43557 whole entry T191A): as the sequence (O43557 whole entry) above, with T191A counted along it
Experimental: as §1

- IC50, inhibition of IL-8 secretion, HT-29 + EL4-NC-LIGHT cells [1]: 0.2 nM
- binding ratio, mAb to LIGHT trimer [2]: 1 mAb per LIGHT trimer
- EC50 [3]: 0.095 nM
- Kd [4]: 0.1 nM
- IC50 [5]: 0.02 µg/mL
- % of WT binding [6]: 80%
- % of WT binding [7]: 0%
- % of WT binding [8]: 88%
- % of WT binding [9]: 1%
- % of WT binding [10]: 0%
- % of WT binding [11]: 6%
- % of WT binding [12]: 68%
- % of WT binding [13]: 0%
- % of WT binding [14]: 81%
- % of WT binding [15]: 0%
- % of WT binding [16]: 2%
B1: 3B04 chimeric IgG4 mAb (antibody, V domains shown)
VH: QVQLQQPGAELVRPGASVTLSCKASGYTFTDYEMHWVKQTPVHGLEWIGEIDPETGDTAYSQKFKGKATLTADKSSSTAYMEFRSLTSEDSAVYYCSRETDYFFDYWGQGTTLTVSS
VL: DIQMTQTPASLSASVGETVTITCGASENIYGALNWYQRKQGKSPQLLIYGATNLADGMSSRFSGSGSGRQYSLKISSLHPDDFATYYCQNVLTTPWTFGGGTKLEIK
notes: also called Parental 3B04

- IC50, inhibition of IL-8 secretion, HT-29 + EL4-NC-LIGHT cells [1]: 0.1 nM
- binding ratio, mAb to LIGHT trimer [2]: 1 mAb per LIGHT trimer
- EC50 [3]: 0.07 nM
- Kd [4]: 0.07 nM
- IC50 [5]: 0.031 µg/mL
- % of WT binding [6]: 70%
- % of WT binding [7]: 1%
- % of WT binding [8]: 84%
- % of WT binding [9]: 25%
- % of WT binding [10]: 0%
- % of WT binding [11]: 20%
- % of WT binding [12]: 82%
- % of WT binding [13]: 2%
- % of WT binding [14]: 83%
- % of WT binding [15]: 1%
- % of WT binding [16]: 8%
B2: 3D12 chimeric IgG4 mAb (antibody, V domains shown)
VH: B1 VH with G26D, Y32S, M34I, D57G, S61N, F83L
VL: B1 VL with T7S, F83V, T93S
notes: Chimeric human IgG4 (S-to-P, L-to-E) with human CL, as m1; also called Parental 3D12; 03D12
